Measured values as given in the DeepSol protein solubility set.

Test: soluble on expression in E. coli; label from the status in PepcDB or PDB records

| Sequence | soluble on expression in E. coli |
| --- | --- |
| MGSDKIHHHHHHMEHTRLHNKGLTLDKIFLKTLRTTHNGFLTDGKDRIGYGEFYDRVIAIAEELHRDLGENRTVSVMDWNTLNFATLLYAVPLSGNVLHPVDVRQPPEQVMSSMKEAQSSYLLYSADFGRLADAVKTSGIVKEDNIRSTKEVFDESTDHKPGNAGLPELEEDRIASVLFSSGTTGKPKGVRYRHRDIVLTIWAMETNLSAFPGPARLASSDTVFSLIPFFHLWSWGTLYISTLIGASYVVGGRFDPGSTSDLIKRNGVTWMSMVPTMFNALISWDRNSLDGMKILIGGSAIPSGILNFASDHQIELTGIYGFTDGLAAGIGTSNINGSLSERNADAVNAITPLVFTDFEVEGENNEIKFRSPWIPEGYFNVQEERAYRDGWFYPGDSAEFTQDGKIRIRDRIKDLIKSGGEFIPSALLEYYISEIGDIGDVAVIGVHDDKWIERPVAIYRTRSGATVNDEIIRSYLKDLSNKGLIRDWWIPDRFIPVDSMPMTGTGKIDKKTLRAMLEKGDLRTDRK | not soluble |
| MGSDKIHHHHHHMLGLPGEMQYVPGIHSPNEGPRPMTIQRKQTREVRIGKVRIGGANPVVVQSMTNTDTRDVEQTVEQIRQLQEAGCEIVRLAVLNEDAAWAIKPIRSQVSVPLVADIHFDHRLAVSALEAGVDALRINPGNIGTRAAVDRVVDAAKAHNAVIRIGVNSGSLETDLIDQYGGPTPEAMVESAFRHIRMLEDRNFGDIKVSLKSSSVSRCIEAYTLLSAKCDYPLHIGVTEAGTVLRGSIKSAVGLGVLLWQGIGDTLRVSLTSDPVAEMAVAWEILRSLGLRSRGPEIIACPTCGRCEIGLIALAEEVERRLEGETESFKVAVMGCVVNGPGEAREADLGIAGGRDKGIIFRKGEIVRTVKGGSNLLAAFMEELDTFLAHRRAERKDD | not soluble |
| MGSDKIHHHHHHMKRARIIYNPTSGREIFKKHLAQVLQKFEQAGYETSTHATTCAGDATHAAKEAALREFDLIIAAGGDGTINEVVNGLAPLDNRPTLGVIPVGTTNDFARALGIPREDILKAADTVINGVARPIDIGQVNGQYFINIAGGGRLTELTYDVPSKLKTMLGQLAYYLKGMEMLPSLRPTEVEIEYDGKLFQGEIMLFLVTLTNSVGGFEKLAPDSSLNDGMFDLMILKKANLAEFIRVATMALRGEHINDQHIIYTKANRVKVNVSEKMQLNLDGEYGGMLPGEFVNLYRHIHVVMPKEKAEQLDD | not soluble |
| MITQHLIPDFIAKMTGSTEVQKSAGMKKSSSSQFKDTLDLAVEKSYAWQSGTKSYEYAMDIKDRPYQRLQNKNILDSAETKERRPDRTKPFNKASNQITSRASDKAERTASPEEENIEGENDRKLKGKAMEKALAEVLGISVEELEKLMAQLGINFENADGETGIQEAADKISAYLGLNQDEKMALAEMMSLVQKQVEQAFKDVQSAYDAARYDMKDENEAYGVELFHAETETAVEDTSALRNDLDVSKVSQEVKNKLDEETDGFLKQIAAKVVEVVQKDESTAGLKTVSVNGENIEEIGLKTDVEDIGNVREAKYSSDEKDSADNSGNAGSETSSMASRGVEAESAAKNSNNIQFEAVSNLTVQRATGQAEPDKTRNIIPVTNKEIVEQVVEKAKVVLSGDKSEMVIDLKPEHLGKLELKIVTERGMVVAKFVAENEQVKAALESNMNMLKESLEKQGFLVEGFSVTVGDNKRRENSRDKTNQGTANQRISGEKLQVSDMTGVERMQRIHENIDPYSYGSSSIDLTA | soluble |
| MGSDKIHHHHHHMIAAIDIGTESARLMFKSNGEWKVLKKSYRIFFPSPEAAEQDPNEIFSAVFDLLKQVPNEDEVLYVGMSSVFHSIIGLDENLNPVTPLLNWADRRSFREKEELEKKYGVRFFYEKTACPLHPMYWPSKILWMKKNSNAKKFCSIKAYIVNKMTREFVEELSLASGTGMMNIHSLEWDGEILEITGVRKEDLPEIKSPYTQLRVKDEIAKELGFKKVYLVLGGGDGVMTNVGVNVMDPDSATVTIGTSGAFRVVMDRPVIDREGISTWCYLIDEENYVLGGAINNGGIVLMWLRDIMKFKDYNDIIEEAKESPAGANGLVFLPFLNGERAPHWRERYRGVLVGLTSSHRRSDIARAALEGICFRIKDIHNAVKRVGSVDPNRIVATGGFTSSPYWVQLLSDVLGKDIIVTNVENPSAFGAYVMALKSLGEDVEGFIEKEVRVERVFHPDSERNAVYERLYNDYKFLYEKLVDYYYKE | not soluble |
| MQNPFVPQLVYIEPRALEYPLGQELQDKFENMGIEIRETTSHNQVRNIPGKNHLQQYRNAKSTLVIGVRKTLKFDSSKPSAEYAIPFATGCMGHCHYCYLQTTMGSKPYIRTYVNVEEILDQADKYMKERAPEFTRFEASCTSDIVGIDHLTHTLKRAIEHFGQSDLGKLRFVTKFHHVDHLLDAKHNGKTRFRFSINADYVIKNFEPGTSPLDKRIEAAVKVAKAGYPLGFIVAPIYIHEGWEEGYRHLFEKLDAALPQDVRHDITFELIQHRFTKPAKRVIEKNYPKTKLELDEEKRRYKWGRYGIGKYIYQKDEEHALREALESYIDTFFPNAKIEYFT | not soluble |
| GPGSMDPNTCAPASAVTDEQPLTLLWGTWEMWCDMPQRQQGQSTENTNWLEQVKSIGLFDSAEGFWGIFNCTILPSQLPPNGSYYLFRKHIAPMWEHEANRRGGKWVIPFTGKASRSEGDLQPVDEAWQTLCLSAIGELFPGDEEEICGVTVSRGRQRTLPSGHATSALSEWKLCLWTRSADNRGSQIRIAEYIRKQLHLQPPSKEASRDGKSGEQDTLMEMPRSPDRSPVAKMREASGIPSAMTYVAHRDLMEAKQEFVKGGSSVAQAFRPKYTLAIDVRNEGV | soluble |
| SEAVGVAPAPAGVPEKKLLEVKESRKAAPAAPSTSMAAKWAMKKKLVGGDAGYVLEDVPHLTDYLPELPTYPNPLQDNPAYSVVKQYFVNTDDTVTQKIVVHKTSARGTHFRRAGPRQRVYFQSDEVNAAIVTCGGLCPGLNTVIRELVCGLYDMYGVTSVVGIEGGYKGFYSRNTVALTPKSVNDIHKRGGTVLGTSRGGHDTGKIVDSIKDRGINQVYIIGGDGTQKGASVIYEEVRRRGLKCSVVGVPKTIDNDIAVIDKSFGFDTAVEEAQRAINAAHVEAESAENGIGVVKLMGRNSGFIAMYATLASRDVDCCLIPESPFYLEGKGGLLEFIEKRLKDNGHMVIVVAEGAGQDLIAKSMNFVDTQDASGNKLLLDVGLWLSQKIKDHFKKKRNFPITLKYIDPTYMIRAVRSNASDNVYCTLLAHSALHGAMAGYTGFTVAPVNGRHAYIPFYRITEKQNKVVITDRMWARVLCSTNQPCFLSHEDVEHLKHDDDEHHLHNTQLLEGESSPVKDSSKCNGTAAPV | soluble |
| SPDHLFPPKPNTRVVVAKFPMGAVTVEDLLVLGKPFGTVVKHLVLPAKGFLEFSAHKEAVNMVNHFQQKPAFVKDTRVGLYLSPRVEGIHSPPKYDEPVPKRLKRTNNPSVVCFSHLPPGEDNQAEVLELAAMFGEVWQSKFLDGKALIEMVDWRDADIMVKYYYSNPLKIQGKSIKVTMSYIKSLREMPGELTPRKSDSSKHSRQKEESSVKDKADDTNQESSEKETKTIKTPEQSQEEGVQLEEGTDHYNNLKLKHAVEEQADGQPDGE | soluble |
| GAMAQKNEDECAVCRDGGELICCDGCPRAFHLACLSPPLREIPSGTWRCSSCLQATVQEVQPRAEE | soluble |
| MGSDKIHHHHHHMKAIGYQTAGAITAPNALENITLAEPTATGFDLLVEIKAISVNPVDTKIRASSSAPTGEYKIIGWDAVGVVKAVGEKVSLFNVGDEVWYAGDISRSGSYAEYQLVDERIVGHKPKSLTYTQAAALPLTGITAWEILFDRLALPQDGSATDARILIIGAAGGVGSIITQLAVKLTGAEVIGTASRPESAAWVHKLGANAVINHTKPLSKELANIGITDVTHVISLTQTDQHFDEIVQVLKPQGKLALIDDPKGPLDVMKLKRKSLSLHWELMFTRSLYQTEDMIAQHHLLNRLSALIDTGELQSTFGEHYGTINAQNLIKAHAQIESGKAIGKIVLEGFNQ | not soluble |
| MLGAIAYTGNKQSLLPELKSHFPKYNRFVDLFCGGLSVSLNVNGPVLANDIQEPIIEMYKRLINVSWDDVLKVIKQYKLSKTSKEEFLKLREDYNKTRDPLLLYVLHFHGFSNMIRINDKGNFTTPFGKRTINKNSEKRFNHFKQNCDKIIFSSLHFKDVKILDGDFVYVDPPYLITVADYNKFWSEDEEKDLLNLLDSLNDRGIKFGLSNVLEHHGKENTLLKEWSKKYNVKHLNKKYVFNIYHSKEKNGTDEVYIFN | soluble |
